Results: paper PMC8725002, “Crystal structure of a putative short-chain dehydrogenase/reductase from Paraburkholderia xenovorans” (Acta Crystallographica. Section F, Structural Biology …, 2022)

Key:
[1] = molecular target: the molecule itself; assay: SEC; Superdex 75, 25 mM HEPES pH 7.0, 500 mM NaCl, 5% glycerol, 2 mM DTT, 0.025% azide; second step of the purification; single large peak at ~76 kDa; self-association
[2] = molecular target: the molecule itself; assay: crystal structure; apo PxSDR, space group P2(1), 1.45 Å; sitting drop, 0.2 M magnesium chloride, 0.1 M bis-Tris pH 5.5, 25% PEG 3350, 287 K; self-association: tetramer

B1: putative short-chain dehydrogenase/reductase from Paraburkholderia xenovorans (His-PxSDR) (enzyme)
chain: MSSAGRLQGKVALVTGAGCIGPGWGNGRAIAVRFAEEGAHVIAVDRDLASMDATLELVRAAGGSVTPCLCDVTDSASVERLVADSVARCGRVDILVNNVGAPSPGGPVALDEAQWAMQLELNLTTAFLMCKYVLPVMEQQGGGAIVNIASTSGIRWTGAAQVGYAAAKAGMIQMGRVVAVEYAAKNVRVNSVVPGLLHTPMVDTKIAHNQAGGDVELLLRKRQARIPMPFMGDGRDTANAALFLASDEARFVTGTEIVVDGGMSARCD
notes: putative short-chain dehydrogenase/reductase (PxSDR), Paraburkholderia xenovorans strain LB400, UniProt Q13GE3, full length, amplified from genomic DNA; copies therefore left empty; also called P. xenovorans SDR; putative short-chain reductase; source: E. coli BL21(DE3)R3 Rosetta, purified (IMAC on Ni-NTA HisTrap FF, SEC on Superdex 75)
stoichiometry N [1]: 2 | stoichiometry N [2]: 4
